Source: paper PMC6893557 (2019)

Molecular target: pYEEI
Assay: SPR

B1: Hck SH2 (protein)
chain: WFFKGISRKDAERQLLAPGNMLGSFMIRDSETTKGSYSLSVRDYDPRQGDTVKHYKIRTLDNGGFYISPRSTFSTLQELVDHYKKGNDGLCQKLSVPC
With B1 the Kd was 42 µM.
